# Assay: yeast display, Sf9 membrane polyspecificity reagent, FACS + sequencing; frameworks hold sequencing errors
# In short: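 A nanobody's polyreactivity label depends on the gate it was sorted from. Yeast display cells were stained with 10% biotinylated, detergent-solubilized Sf9 membrane reagent for 1 hour at 4 °C, enriched on streptavidin microbeads and sorted by FACS. The low and high (top ~1%) gates were set on anti-HA fluorescence for expression and streptavidin fluorescence for reagent binding.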
row,Sequence,polyreactivity (PSR sort gate)
1,QVQLVESGGGLVQAGGSLRLSCAASGSIFLRYAMGWYRQAPGKERELVATITSGGRTKYADSVKGRFTISRDNAKNTVYLQMNSLKPEDTAVYYCNAKTQSLKRSTFNYWGQGTQVTVSS,low polyreactivity
2,QVQLVESGGGLVQAGGSLRLSCAASGSIFLRYGMGWYRQAPGKERELVAAISRGGGSTYYADSVKGRFTISRDNAKNTVYLQMNSLKPEDTAVYYCNKASYRYSSDYDYWGQGTQVTVSS,high polyreactivity
3,QVQLVESGGGLVQAGGSLRLSCAASGSIFLSNAMGWYRQAPGKERELVASISGSGSTNYADSVKGRFTISRDNAKNTVYLQMNSLKPEDTAVYYCAAYQRYDSVTGARYEYDYWGQGTQVTVSS,low polyreactivity
4,QVQLVESGGGLVQAGGSLRLSCAASGSIFLSYAMGWYRQAPGKERELVAAISRRGVRTYYADSVKGRFTISRDNAKNTVYLQMNSLKPEDTAVYYCAKDAYFPPWTYGSIFGLYDYWGQGTQVTVSS,low polyreactivity
5,QVQLVESGGGLVQAGGSLRLSCAASGSIFLVYAMGWYRQAPGKERELVAAISSDGDDTYYADSVKGRFTISRDNAKNTVYLQMNSLKPEDTAVYYCAAESYTYYADYGYGYWGQGTQVTVSS,high polyreactivity
6,QVQLVESGGGLVQAGGSLRLSCAASGSIFLVYAMGWYRQAPGKERELVAGITSDDSTNYADSVKGRFTISRDNAKNTVYLQINRLKPEDTAVYYCAKDSLGLYIVDLGYWGQGTQVTVSS,low polyreactivity
7,QVQLVESGGGLVQAGGSLRLSCAASGSIFLVYSMGWYRQAPGKERELVAAISRSGRTYADSVKGRFTISRDNAKNTVYLQMNSLKPEDTAVYYCNKLAVRPGYGSTYDYWGQGTQVTVSS,high polyreactivity
8,QVQLVESGGGLVQAGGSLRLSCAASGSIFLWNAMGWYRQAPGKERELVAAITWRGGSTYYADSVKGRFTISRDNAKNTVYLQMNSLKPEDTAVYYCAADSYDWMDYWGQGTQVTVSS,low polyreactivity
9,QVQLVESGGGLVQAGGSLRLSCAASGSIFLWYAMGWSRQAPGKERELVAALTYSGGTTYYADSVKGRFTISRDNAKNTVYLQLNSLKPEDTAVYYCAKRTAVWTSGGYRKRDYWGQGTQVTVSS,high polyreactivity
10,QVQLVESGGGLVQAGGSLRLSCAASGSIFLWYDMGWYRQAPGKEREFVASITRSGGSTYYADSVKGRFTISRDNAKNTVYLQMNSLKPEDTAVYYCAAGRRSSWRYYLWYDYWGQGTQVTVSS,low polyreactivity
11,QVQLVESGGGLVQAGGSLRLSCAASGSIFLYNAMGWYRQAPGKERELVAAISKSGGSTYYADSVKGRFTISRDNAKNTVYLQMNSLKPEDTAVYYCAAGYGRRIRYGSEYDYWGQGTLVTVSS,low polyreactivity
12,QVQLVESGGGLVQAGGSLRLSCAASGSIFLYYAMGWYRQAPGKERELVAAISQNGGSTYYADSVKGRFTISRDNAKNTVYLQMNSLKPEDTAVYYCNKYSFALRYDYWGQGTQVTVSS,low polyreactivity
13,QVQLVESGGGLVQAGGSLRLSCAASGSIFLYYAMGWYRQAPGKERELVAAISYSGASTYYADSVKGRFTISRDNAKNTVYLQMNSLKPEDTAVYYCARDYGQYVGEGCYWGQGTQVTVSS,low polyreactivity
14,QVQLVESGGGLVQAGGSLRLSCAASGSIFLYYAMGWYRQAPGKERELVAVITSGGITNYADSVKGRFTISRDNAKNTFYLQMNSLKPEDTAVYYCNKEYYITYFDLVYSSLDYWGQGTQVTVSS,low polyreactivity
15,QVQLVESGGGLVQAGGSLRLSCAASGSIFLYYAMGWYRQAPGNERELVAGINRVGSTNYADSVKGRFTISRDNAKNTVYLQMNSLKPEDTAVYYCNKRATRSRRRGYWGQGTQVTVSS,low polyreactivity
16,QVQLVESGGGLVQAGGSLRLSCAASGSIFNANAMGLYIQAPGKERELVASISGGAGSTYYADSVKGRFTISRDNAKNTVYLQMNSLKPEDTAVYYCNARWQEPLKYDYWGQGTQVTVSS,low polyreactivity
17,QVQLVESGGGLVQAGGSLRLSCAASGSIFNAYDMGWYRQAPGKERELVAGISSSDSTYYADSVKGRFTISRDNAKNTVYLQMNSLIPEDTAVYYCAADPVFAAAYIHLYGIYDSWGQGTQVTVSS,low polyreactivity
18,QVQLVESGGGLVQAGGSLRLSCAASGSIFNGNDMGWYRQAPGKERELVASITSNGGRTYYADSVKGRVTISRDNAKNTVYLQMNSLKPEDTAVYYCAAGYYILYIWKFDYWGQGTQVTVSS,high polyreactivity
19,QVQLVESGGGLVQAGGSLRLSCAASGSIFNGYAMGWYRQAPGKERELVAAISWSGVGTYYADSVKGRFTISRDNAKNTVYLQMNSLKPEDTAVYYCAAALPLVDFYDYWGQGTQVTVSS,low polyreactivity
20,QVQLVESGGGLVQAGGSLRLSCAASGSIFNGYVMGWYRQAPGKERELVAAISSGGRTYYADSVKGRFTISRDNAKNTVYLQMNSLKPEDTAVYYCNAYWLHYPSRVRKITAYDYWGQGTQVTVSS,low polyreactivity
21,QVQLVESGGGLVQAGGSLRLSCAASGSIFNINVMGWYRQAPGKEREMVAAINSGTSTYYADSVKGRFTISRDNAKNTVYLQMNSLKPEDTAVYYCAARNLFTGRRLFYYWGQGTQVTVSS,low polyreactivity
22,QVQLVESGGGLVQAGGSLRLSCAASGSIFNPNAMGWYRQAPGKETELVAAISWISGRTYYADSGKGRFTISRDNAKNTVYLQMISLKTEDTAVYYCAARYPLTQSKYYYWGQWTQVTVSS,high polyreactivity

row,Sequence,polyreactivity (PSR sort gate)
1,QVQLVESGGGLVQAGGSLRLSCAASGSIFNPYTMGWYRQAPGKEREMVAAISASGGSTYYADSVKGRFTISRDNAKNTVYLQMNSLKPEDTAVYYCNVYRITRHSYNFGFDYWGQGTQVTVSS,low polyreactivity
2,QVQLVESGGGLVQAGGSLRLSCAASGSIFNRNAMGWYRQAPGKERELVAAISNSGARTYYADSVKGRFTISRDNAKNTVYLQMNSLKPEDTAVYYCNDVRRRSKLYNYWGQGTQVTVSS,high polyreactivity
3,QVQLVESGGGLVQAGGSLRLSCAASGSIFNRYAMGWFRQAPGKERELVAAISRRGAGTYYADSVKGRFTISRDNAKNTVYLQMNSLKPEDTAVYYCAATLSYTGSKRYDYWGQGTQVTVSS,high polyreactivity
4,QVQLVESGGGLVQAGGSLRLSCAASGSIFNRYAMGWYRQAPGKEREIVAAISTHTGTTYYADSVKGRFTISRDNAKNTVYLQMNSLKPEDTAVYYCDKRSRYGYGKSYDYWGQGTQVTVSS,high polyreactivity
5,QVQLVESGGGLVQAGGSLRLSCAASGSIFNRYTMGWYRQAPGKERELVAAISKRGGSTYYADSVKGRFTISRDNAKNTVYLQMNSLKPEDTAVYYCAAAGYHSGKGGGYWGQGTQVTVSS,high polyreactivity
6,QVQLVESGGGLVQAGGSLRLSCAASGSIFNSYAMGWSRQAPGKERELVAAISSGGGRTYYADSVKGRFTISRDNAKNTVYLQMNSLKPEDTAVYYCNARAVYRFDYWGQGTQVTVSS,high polyreactivity
7,QVQLVESGGGLVQAGGSLRLSCAASGSIFNTIALGWYRQAPGKESELVASISSDGGTNYADSLKGRFTISRDNAKNTVYLQMNRLKPEDTAVYACATTQEYSGQRTPGYDYWGQVTQVTVSS,low polyreactivity
8,QVQLVESGGGLVQAGGSLRLSCAASGSIFNTYAMGWYRQAPGKERELVAAISRSGDSTYYADSVKGRFTISRDNAKNTVYVQMNSLKPEDSAVYYCATGRTDHGYYYWGQGTQVTVSS,high polyreactivity
9,QVQLVESGGGLVQAGGSLRLSCAASGSIFNTYAMGWYRQAPGKERELVAAITWSGGSTYYADSVKGRFTISRDNAKNTVYLQRNSLKPEDTAVYDCAARQRRQSYWGQGTQVTVSS,high polyreactivity
10,QVQLVESGGGLVQAGGSLRLSCAASGSIFNVNAMGWYRQAPGKERELVAAISSGGNTNYADSVKGRFTFSRDNAKNTVYLQMNRLKPEDTAVYYCATGGYYSAIVYGGYDYWGQGTQVTVSS,low polyreactivity
11,QVQLVESGGGLVQAGGSLRLSCAASGSIFNWYAMGWYTQAPGKERELVAAISWRCGSTYYADSVKGRFTISRDNAKITVYLQMNSLKPEDTAVYYCAADGGADHMDYWGQGTQVTVSS,high polyreactivity
12,QVQLVESGGGLVQAGGSLRLSCAASGSIFNYNAMGWYRQAPGKERELVAGITTSGGSTYYADSVKGRFTISRDNAKKTVYLQMNSLKPEDTAVYYCAAYDYISSTYFLDDYWGQGTQVTVSS,low polyreactivity
13,QVQLVESGGGLVQAGGSLRLSCAASGSIFNYNAMGWYRQEPGKERVLVATINKRAGRTYYADSVKGRFTISRDNAKNTFYLQMNSLNPEETAVYYCAAYGRNYSIYDYWGQGTQVTVSS,high polyreactivity
14,QVQLVESGGGLVQAGGSLRLSCAASGSIFNYNTMGWYRQAPGKERELVADISWSGGSTYYADSVKGRFTISRDNAKNTVYLQMNSLKPEDTAVYYCAADFGLFPYVGTGYYFWGQGTQVTVSS,low polyreactivity
15,QVQLVESGGGLVQAGGSLRLSCAASGSIFNYYAMGWYRQAPGKEMELVAGITTSGGYTYYADSVKGRFTISSDNAKNTVYLQMNSLKPEDTAVYYCAAYDYISSTYFLDDYWGQGTQVTVSS,low polyreactivity
16,QVQLVESGGGLVQAGGSLRLSCAASGSIFNYYAMGWYRQAPGKERELVAAITYGGASTYYADSVKGRFTISRDNAKNTVYLQMNSLKPEDTAVYYCAADSFTRWVFYRSTVRGFGYWGQGTQVTVSS,high polyreactivity
17,QVQLVESGGGLVQAGGSLRLSCAASGSIFNYYGMGWYRQAPGKEREFVAAITSNGGTTYYADSVKGRFTISRDNAKNTVYLQMNSLKPEDTAVYYCADRPRYYWRGYDYWGLGTQVTVSS,high polyreactivity
18,QVQLVESGGGLVQAGGSLRLSCAASGSIFNYYVMGWYRQAPGKERELVAGIRWNGGSTYYADSVKGRFTISRDNAKNTVYLQMNSLKPEDTAVYYCAAQAWWGYYSRGPMDYWGQGTQVTVSS,low polyreactivity
19,QVQLVESGGGLVQAGGSLRLSCAASGSIFNYYVMGWYRQAPGKERELVAGIRWNGGSTYYADSVKGRFTISRDNAKNTVYLQMNSLKPEDTAVYYFAAQAWWGYYSRGPMDYWGQGTQVTVSS,low polyreactivity
20,QVQLVESGGGLVQAGGSLRLSCAASGSIFPANAMGWYRQAPGKERELVAAISGRGGRTYYADSVKGRFTISRDNAKNTVYLQMNSLKPEDTAVYYCNKVGPLVGGVKYYYWGQGTQVTVSS,high polyreactivity
21,QVQLVESGGGLVQAGGSLRLSCAASGSIFPAYALGWYRPAPGKERELVAAITSSCGSTYYADSVKGRFTISRDNAKNTVYLQMNSLKPEDTAVYYCATVYPGDSYVYRFDYWGQGTQVTVSS,low polyreactivity

# Source: the nanobody polyreactivity screen of Harvey et al. (2022)
